# Columns and labels:
# Conditions in all cases: Brevibacillus brevis
# [1] = substrate: CC(=O)NCCSC(=O)[C@H](CC(C)C)NC(=O)[C@H](CCCN)NC(=O)[C@H](CCCN=C(N)N)NC(=O)[C@H](Cc1ccc(O)cc1)NC(=O)[C@H](CCC(N)=O)NC(=O)[C@H](CC(N)=O)NC(=O)[C@@H](Cc1ccccc1)NC(=O)[C@H](Cc1ccccc1)NC(=O)[C@@H]1CCCN1C(=O)[C@H](N)Cc1ccccc1; assay: (§1) Apparent kinetic constant (Km) determined for tyrocidine thioesterase amplified from Bacillus brevis (ATCC8185)
# [2] = substrate: CC(=O)NCCSC(=O)[C@H](CC(C)C)NC(=O)[C@H](CCCN)NC(=O)[C@@H](NC(=O)[C@H](Cc1ccc(O)cc1)NC(=O)[C@H](CCC(N)=O)NC(=O)[C@H](CC(N)=O)NC(=O)[C@H](Cc1c[nH]cn1)NC(=O)[C@H](Cc1ccccc1)NC(=O)[C@@H]1CCCN1C(=O)[C@H](N)Cc1ccccc1)C(C)C; assay: as §1
# [3] = substrate: CC(=O)NCCSC(=O)[C@H](CC(C)C)NC(=O)[C@H](CCCN)NC(=O)[C@@H](NC(=O)[C@H](Cc1ccc(O)cc1)NC(=O)[C@H](CCC(N)=O)NC(=O)[C@H](CC(N)=O)NC(=O)[C@@H](Cc1ccccc1)NC(=O)[C@H](Cc1ccccc1)NC(=O)[C@H](CC(N)=O)NC(=O)[C@H](N)Cc1ccccc1)C(C)C; assay: as §1
# [4] = substrate: CC(=O)NCCSC(=O)[C@H](CC(C)C)NC(=O)[C@H](CCCN)NC(=O)[C@H](CCC(N)=O)NC(=O)[C@H](Cc1ccc(O)cc1)NC(=O)[C@H](CCC(N)=O)NC(=O)[C@H](CC(N)=O)NC(=O)[C@@H](Cc1ccccc1)NC(=O)[C@H](Cc1ccccc1)NC(=O)[C@@H]1CCCN1C(=O)[C@H](N)Cc1ccccc1; assay: as §1
# [5] = substrate: CC(=O)NCCSC(=O)[C@H](CC(C)C)NC(=O)[C@H](CCCN)NC(=O)[C@@H](NC(=O)[C@H](Cc1ccc(O)cc1)NC(=O)[C@H](CCC(N)=O)NC(=O)[C@H](CC(N)=O)NC(=O)[C@H](Cc1c[nH]c2ccccc12)NC(=O)[C@H](Cc1ccccc1)NC(=O)[C@@H]1CCCN1C(=O)[C@H](N)Cc1ccccc1)C(C)C; assay: as §1
protein,measurement,setting,value
"Thioesterase GrsT homolog tycF (Brevibacillus brevis), O30412 (protein) MKLFCFPYAGGLPGIYYSWKSRLPPTFLEIDAFEVRPHIPQPNRDVFLPTSFYELLEDVCDRITPALTETPFAFFGHSMGGLVAFELTRKLMQKGAPLPQHLFLSASRAPHAYGKLAKTYNLPHDEFVEALRKLGGTPDDVLENQELLELFLPILRADFQAVQTYEMNPDLPRQVPVNMTVLYGTEDTIALEDIWAWRDYCQGACQFFPVSGGHFFIHHQTSPILEIIQNVLKEEKTVAIHSSF",Km,[1],33 µM
same,Km,[2],82 µM
same,Km,[3],82 µM
same,Km,[4],62 µM
same,Km,[5],7.5 µM
